Measured values from patent US20230346885A1 (published 2023).

T1: CLDN6 peptide on HLA (human)
T1 peptide: TLIPVCWTA

T2: CLDN6 peptide on HLA (human)
T2 peptide: VLTSGIVFV

T3: CT45A1 peptide on HLA (human)
T3 peptide: SLIAGSAMSKA

T4: CT45A1 peptide on HLA (human)
T4 peptide: KLVKELRCV

T5: CT45A1 peptide on HLA (human)
T5 peptide: KIFEMLEGV

T6: BRDT peptide on HLA (human)
T6 peptide: EMFPKFTEV

T7: CALHM3 peptide on HLA (human)
T7 peptide: ALLDGKCFV


Target: T1, CLDN6 peptide on HLA
Experiment: binding, other

binding result	Binder
recognises	TCR of SEQ ID NOs 329 and 330 (TCR, V domains shown) Valpha: KQEVTQIPAALSVPEGENLVLNCSFTDSAIYNLQWFRQDPGKGLTSLLLIQSSQREQTSGRLNASLDKSSGRSTLYIAASQPGDSATYLCAVQGYGTALIFGKGTTLSVSS Vbeta: NAGVTQTPKFQVLKTGQSMTLQCAQDMNHEYMSWYRQDPGMGLRLIHYSVGAGITDQGEVPNGYNVSRSTTEDFPLRLLSAAPSQTSVYFCASSQGPYMNTEAFFGQGTRLTVV
recognises	TCR of SEQ ID NOs 331 and 332 (TCR, V domains shown) Valpha: KQEVTQIPAALSVPEGENLVLNCSFTDSAIYNLQWFRQDPGKGLTSLLLIQSSQREQTSGRLNASLDKSSGRSTLYIAASQPGDSATYLCAAKAAGNKLTFGGGTRVLVKP Vbeta: NAGVTQTPKFQVLKTGQSMTLQCAQDMNHNSMYWYRQDPGMGLRLIYYSASEGTTDKGEVPNGYNVSRLNKREFSLRLESAAPSQTSVYFCASSESLGVTGTAFFGQGTRLTVV
recognises	TCR of SEQ ID NOs 333 and 334 (TCR, V domains shown) Valpha: KQEVTQIPAALSVPEGENLVLNCSFTDSAIYNLQWFRQDPGKGLTSLLLIQSSQREQTSGRLNASLDKSSGRSTLYIAASQPGDSATYLCAVKKDAGNKLTFGGGTRVLVKP Vbeta: NAGVTQTPKFQVLKTGQSMTLQCAQDMNHNSMYWYRQDPGMGLRLIYYSASEGTTDKGEVPNGYNVSRLNKREFPLRLLSAAPSQTSVYFCASSRRLGASSEAFFGQGTRLTVV

Target: T2, CLDN6 peptide on HLA
Experiment: binding, other

binding result	Binder
recognises	TCR of SEQ ID NOs 335 and 336 (TCR, V domains shown) Valpha: KQEVTQIPAALSVPEGENLVLNCSFTDSAIYNLQWFRQDPGKGLTSLLLIQSSQREQTSGRLNASLDKSSGRSTLYIAASQPGDSATYLCAVRHLSNDYKLSFGAGTTVTVRA Vbeta: NAGVTQTPKFQVLKTGQSMTLQCAQDMNHEYMSWYRQDPGMGLRLIHYSVGAGITDQGEVPNGYNVSRSTTEDFPLRLLSAAPSQTSVYFCASKRGFDEGSPLHFGNGTRLTVT
recognises	TCR of SEQ ID NOs 339 and 340 (TCR, V domains shown) Valpha: KQEVTQIPAALSVPEGENLVLNCSFTDSAIYNLQWFRQDPGKGLTSLLLIQSSQREQTSGRLNASLDKSSGRSTLYIAASQPGDSATYLCAVRPLGGGYQKVTFGTGTKLQVIP Vbeta: NAGVTQTPKFRVLKTGQSMTLQCAQDMNHNSMYWYRQDPGMGLRLIYYSASEGTTDKGEVPNGYNVSRLNKREFSLRLESAAPSQTSVYFCASSDTGTSVTGELFFGEGSRLTVL
recognises	TCR of SEQ ID NOs 337 and 338 (TCR, V domains shown) Valpha: KQEVTQIPAALSVPEGENLVLNCSFTDSAIYNLQWFRQDPGKGLTSLLLIQSSQREQTSGRLNASLDKSSGRSTLYIAASQPGDSATYLCAVRHNQGGKLIFGQGTELSVKP Vbeta: NAGVTQTPKFRVLKTGQSMTLLCAQDMNHEYMYWYRQDPGMGLRLIHYSVGAGITDQGEVPNGYNVSRLNKREFSLRLESAAPSQTSVYFCASSDRGVYEQYFGPGTRLTVT

Target: T3, CT45A1 peptide on HLA
Experiment: binding, other

binding result	Binder
recognises	TCR of SEQ ID NOs 345 and 346 (TCR, V domains shown) Valpha: KQEVTQIPAALSVPEGENLVLNCSFTDSAIYNLQWFRQDPGKGLTSLLLIQSSQREQTSGRLNASLDKSSGRSTLYIAASQPGDSATYLCAVRGYQKVTFGTGTKLQVIP Vbeta: NAGVTQTPKFQVLKTGQSMTLQCAQDMNHNSMYWYRQDPGMGLRLIYYSASEGTTDKGEVPNGYNVSRLNKREFSLRLESAAPSQTSVYFCASSEASGLRSPLHFGNGTRLTVT
recognises	TCR of SEQ ID NOs 341 and 342 (TCR, V domains shown) Valpha: QKEVEQNSGPLSVPEGAIASLNCTYSDRGSQSFFWYRQYSGKSPELIMFIYSNGDKEDGRFTAQLNKASQYVSLLIRDSQPSDSATYLCAVGTSYDKVIFGPGTSLSVIP Vbeta: NAGVTQTPKFQVLKTGQSMTLQCAQDMNHEYMSWYRQDPGMGLRLIHYSVGAGITDQGEVPNGYNVSRSTTEDFPLRLLSAAPSQTSVYFCASSYGGGSGYTFGSGTRLTVV
recognises	TCR of SEQ ID NOs 343 and 344 (TCR, V domains shown) Valpha: QKEVEQNSGPLSVPEGAIASLNCTYSDRGSQSFFWYRQYSGKSPELIMFIYSNGDKEDGRFTAQLNKASQYVSLLIRDSQPSDSATYLCAVGGAGGYQKVTFGTGTKLQVIP Vbeta: NAGVTQTPKFQVLKTGQSMTLQCAQDMNHEYMSWYRQDPGMGLRLIHYSVGAGITDQGEVPNGYNVSRSTTEDFPLRLLSAAPSQTSVYFCASSYSGNEQYFGPGTRLTVT

Target: T4, CT45A1 peptide on HLA
Experiment: binding, other

binding result	Binder
recognises	TCR of SEQ ID NOs 349 and 350 (TCR, V domains shown) Valpha: KQEVTQIPAALSVPEGENLVLNCSFTDSAIYNLQWFRQDPGKGLTSLLLIQSSQREQTSGRLNASLDKSSGRSTLYIAASQPGDSATYLCAVTNAGKSTFGDGTTLTVKP Vbeta: NAGVTQTPKFQVLKTGQSMTLQCAQDMNHEYMSWYRQDPGMGLRLIHYSVGAGITDQGEVPNGYNVSRSTTEDFPLRLESAAPSQTSVYFCASSEVPGPYGYTFGSGTRLTVV
recognises	TCR of SEQ ID NOs 347 and 348 (TCR, V domains shown) Valpha: KQEVTQIPAALSVPEGENLVLNCSFTDSAIYNLQWFRQDPGKGLTSLLLIQSSQREQTSGRLNASLDKSSGRSTLYIAASQPGDSATYLCAVRTTDSWGKLQFGAGTPVVVTP Vbeta: NAGVTQTPKFQVLKIGQSMTLQCTQDMNHNYMYWYRQDPGMGLKLIYYSVGAGITDKGEVPNGYNVSRSTTEDFPLRLELAAPSQTSVYFCASSSPLGKQYFGPGTRLTVL
recognises	TCR of SEQ ID NOs 351 and 352 (TCR, V domains shown) Valpha: KQEVTQIPVALSVPEGENLVLNCSFTDSAIYNLQWFRQDPGKGLTSLLLIQSSQREQTSGRLNASLDKSSGRSTLYIAASQPGDSATYLCALRGEADSWGKLQFGAGTQVVVTP Vbeta: NAGVTQTPKFQVLKTGQSMTLQCAQDMNHNYMYWYRQDPGMGLKLIYYSVGAGITDKGEVPNGYNVSRSTTEDFPLRLELAAPSQTSVYFCASSSPLGEQYFGPGTRLTVT

Target: T5, CT45A1 peptide on HLA
Experiment: binding, other

binding result	Binder
recognises	TCR of SEQ ID NOs 357 and 358 (TCR, V domains shown) Valpha: KQEVTQIPAALSVPEGENLVLNCSFTDSAIYNLQWFRQDPGKGLTSLLLIQSSQREQTSGRLNASLDKSSGRSTLYIAASQPGDSATYLCAVKVWSNTGKLIFGQGTTLQVKP Vbeta: NAGVTQTPKFRILKIGQSMTLQCTQDMNHNYMYWYRQDPGMGLKLIYYSVGAGITDKGEVPNGYNVSRSTTEDFPLRLELAAPSQTSVYFCASSYEGDISYGYTFGFGTRLTVV
recognises	TCR of SEQ ID NOs 355 and 356 (TCR, V domains shown) Valpha: KQEVTQIPAALSVPEGENLVLNCSFTDSAIYNLQWFRQDPGKGLTSLLLIQSSQREQTSGRLNASLDKSSGRSTLYIAASQPGDSATYLCAVWRTTDSWGKLQFGAGTQVVVTP Vbeta: NAGVTQTPKFRILKIGQSMTLQCTQDMNHNYMYWYRQDPGMGLKLIYYSVGAGITDKGEVPNGYNVSRSTTEDFPLRLLSAAPSQTSVYFCASSYGQGYGYTFGSGTRLTVV
recognises	TCR of SEQ ID NOs 353 and 354 (TCR, V domains shown) Valpha: QKEVEQNSGPLSVPEGAIASLNCTYSDRGSQSFFWYRQYSGKSPELIMSIYSNGDKEDGRFTAQLNKASQYVSLLIRDSQPSDSATYLCAVNYRGALTFGSGTRLQVQP Vbeta: NAGVTQTPKFRILKIGQSMTLQCTQDMNHNYMYWYRQDPGMGLKLIYYSVGAGITDQGEVPNGYNVSRSTTEDFPLRLLSAAPSQTSVYFCASSYLRTGGNYGYTFGSGTRLTVV

Target: T6, BRDT peptide on HLA
Experiment: binding, other

binding result	Binder
recognises	TCR of SEQ ID NOs 315 and 316 (TCR, V domains shown) Valpha: KQEVTQIPAALSVPEGENLVLNCSFTDSAIYNLQWFRQDPGKGLTSLLLIQSSQREQTSGRLNASLDKSSGRSTLYIAASQPGDSATYLCAVSPRSNDYKLSFGAGTTVTVRA Vbeta: NAGVTQTPKFRILKIGQSMTLQCTQDMNHNYMYWYRQDPGMGLKLIYYSVGAGTTDKGEVPNGYNVSRLNKREFSLRLESAAPSQTSVYFCASSATRRGDYGYTFGSGTRLTVV
recognises	TCR of SEQ ID NOs 311 and 312 (TCR, V domains shown) Valpha: KQEVTQIPAALSVPEGENLVLNCSFTDSAIYNLQWFRQDPGKGLTSLLLIQSSQREQTSGRLNASLDKSSGRSTLYIAASQPGDSATYLCAVTGGTSYGKLTFGQGTILTVHP Vbeta: NAGVTQTPKFRILKIGQSMTLQCTQDMNHNYMYWYRQDPGMGLKLIYYSVGAGITDKGEVPNGYNVSRSTTEDFPLRLELAAPSQTSVYFCASSYWAGVLTEAFFGQGTRLTVV
recognises	TCR of SEQ ID NOs 313 and 314 (TCR, V domains shown) Valpha: KQEVTQIPAALSVPEGENLVLNCSFTDSAIYNLQWFRQDPGKGLTSLLLIQSSQREQTSGRLNASLDKSSGRSTLYIAASQPGDSATYLCAVSNYGGSQGNLIFGKGTKLSVKP Vbeta: NAGVTQTPKFRVLKTGQSMTLLCAQDMNHEYMYWYRQDPGMGLRLIHYSVGEGTTAKGEVPDGYNVSRLKKQNFLLGLESAAPSQTSVYFCASTHWGRDSPLHFGNGTRLTVT

Target: T7, CALHM3 peptide on HLA
Experiment: binding, other

binding result	Binder
recognises	TCR of SEQ ID NOs 323 and 324 (TCR, V domains shown) Valpha: KQEVTQIPAALSVPEGENLVLNCSFTDSAIYNFQWFRQDPGKGLTSLLLIQSSQREQTSGRLNASLDKSSGRSTLYIAASQPGDSATYLCAAHPATGANSKLTFGKGITLSVRP Vbeta: NAGVTQTPKFQVLKTGQGMTLQCAQDMNHNSMYWYRQDPGMGLRLIYYSASEGTTDKGEVPNGYNVSRLNKREFSLRLESAAPSQTSVYFCASSEASGSNSPLHFGNGTRLTVT
recognises	TCR of SEQ ID NOs 325 and 326 (TCR, V domains shown) Valpha: QKEVEQNSGPLSVPEGAIASLNCTYSDRGSQSFFWYRQYSGKSPELIMFIYSNGDKEDGRFTAQLNKASQYVSLLIRDSQPSDSATYLCAVRTPSGSARQLTFGSGTQLTVLP Vbeta: DAGVTQSPTHLIKTRGQHVTLRCSPKSGHDTVSWYQQALGQGPQFIFQYYGEEERQRGNFPDRFSGHQFPNYSSELNVNALLLGDSALYLCASSLGAGGGHSGNTIYFGEGSWLTVV
recognises	TCR of SEQ ID NOs 327 and 328 (TCR, V domains shown) Valpha: GNSVTQMEGPVTLSEEAFLTINCTYTATGYPSLFWYVQYPGEGLQLLLKATKADDKGSNKGFEATYRKETTSFHLEKGSVQVSDSAVYFCAPHTDKLIFGTGTRLQVFP Vbeta: DSGVTQTPKHLITATGQRVTLRCSPRSGDLSVYWYQQSLDQGLQFLIQYYNGEERAKGNILERFSAQQFPDLHSELNLSSLELGDSALYFCASSGGTGDGYTFGSGTRLTVV
